Among the data in the RNAGym collection of RNA variant scans (doi:10.7554/elife.80360) are self-cleavage values, retold here.

B1: Hammerhead Ribozyme (parent)
chain: ACCGGAUGUGCUUUCCGGUCUGAUGAGUCCGUGAGGACGAAACAG

In the data set the parent is B1. The experiment in a line: self-cleavage, relative activity (ratio to wild type); higher = more cleavage; co-transcriptional.
Turning to C3U G31U, the self-cleavage came out at 1.17.
The same measure for C3U G31A: 1.06; for C3U G31C: 0.974; for C3U G45A: 0.468.
C3U G45C: the self-cleavage worked out at 0.579.
On to C3U G45U, for which the self-cleavage turned out to be 0.599.
The same measure for C3U G33U: 0.991; for C3U G33A: 0.953.
As for C3U G33C, the figure is 0.957; as for G4A A42C, 0.335; as for G4A A42U, 0.319.
The same measure for G4A A42G: 0.341; for C3U A44G: 1.49.
On to C3U A44U, for which the self-cleavage came out at 0.592.
C3U A44C: the self-cleavage was determined as 0.522.
As for C3G G18A, the figure is 0.323; as for C3G G18U, 0.535.
The same measure for C3G G18C: 0.335.
As for G4A A44C, the figure is 0.388.
For G4A A44G, the self-cleavage stood at 0.84.
The same measure for G4A A44U: 0.435; for G4A A37G: 0.391.
Consider G4A A37C, for which the self-cleavage is 0.491.
The same measure for G4A A37U: 0.378.
The same measure for C3A U19C: 0.277; for C3A U19G: 0.296; for C3G G31A: 0.636.
As for C3G G31U, the figure is 0.609; as for C3G G31C, 0.527; as for C3G U32G, 0.36.
Take C3G U32C: the self-cleavage worked out at 0.433.
With C3G U32A, the self-cleavage was 0.639.
For the variant G4A A41G, the self-cleavage was found to be 0.287.
As for G4A A41C, the self-cleavage came to 0.34.
The same measure for G4A A41U: 0.382.
As for C3U G35U, the figure is 0.761.
As for C3U G35A, the figure is 0.487.
As for C3U G35C, the self-cleavage came out at 0.625.
The same measure for C3U C30U: 0.929; for C3U C30G: 0.727; for C3U C30A: 1.05.
The same measure for C3G U13A: 1.02.
The same measure for C3G U13G: 0.628.
With C3G U13C, the self-cleavage amounted to 0.655.
For the variant C3U G18C, the self-cleavage was found to be 0.472.
The same measure for C3U G18U: 0.453.
The same measure for C3U G18A: 0.412; for C3G A42G: 0.256; for C3G A42C: 0.31.
As for C3G A42U, the figure is 0.23; as for G4A C20U, 0.358; as for G4A C20A, 0.402.
Regarding G4A C20G, the self-cleavage turned out to be 0.334.
As for C3U C20G, the figure is 0.306; as for C3U C20U, 0.523.
The same measure for C3U C20A: 0.465; for C3G C43A: 0.318; for C3G C43U: 0.272.
The same measure for C3G C43G: 0.273; for C3U U7G: 1.25.
Turning to C3U U7C, the self-cleavage amounted to 0.743.
The same measure for C3U U7A: 1.26; for C3U U24C: 0.956; for C3U U24G: 0.945.
The same measure for C3U U24A: 1.24; for G4A C38A: 0.373; for G4A C38U: 0.453.
As for G4A C38G, the figure is 0.344; as for C3G U9C, 0.574.
In the case of C3G U9A, the self-cleavage turned out to be 0.411.
Take C3G U9G: the self-cleavage was found to be 0.407.
The same measure for C3G C20A: 0.295.
Take C3G C20U: the self-cleavage is 0.26.
With C3G C20G, the self-cleavage is 0.317.
As for C3G G4A, the figure is 0.283; as for C3G G4U, 0.322.
The same measure for C3G G4C: 0.289; for C3U G39A: 0.309.
As for C3U G39C, the figure is 0.462.
C3U G39U: the self-cleavage came to 0.343.
The same measure for C3U A41G: 0.354; for C3U A41C: 0.404.
With C3U A41U, the self-cleavage is 0.378.
The same measure for C3G U21C: 0.413.
As for C3G U21G, the figure is 0.298.
Regarding C3G U21A, the self-cleavage was 0.236.
The same measure for C3U G17A: 1.03; for C3U G17U: 0.866; for C3U G17C: 0.675.
Turning to C3G U28C, the self-cleavage amounted to 0.447.
The same measure for C3G U28A: 0.376; for C3G U28G: 0.356; for C3G G36U: 0.278.
The same measure for C3G G36A: 0.271.
The same measure for C3G G36C: 0.328; for C3U C15A: 0.486.
For the variant C3U C15U, the self-cleavage came out at 0.984.
The same measure for C3U C15G: 0.382.
As for C3G C30G, the figure is 0.273; as for C3G C30U, 0.636; as for C3G C30A, 0.353.
As for G4A G10C, the figure is 0.414; as for G4A G10A, 0.866.
With G4A G10U, the self-cleavage was 0.734.
The same measure for C3G A6U: 0.322; for C3G A6G: 0.294.
As for C3G A6C, the figure is 0.361; as for C3U A26U, 0.624.
As for C3U A26G, the figure is 0.366.
As for C3U A26C, the self-cleavage was found to be 0.394.
In the case of C3U U9A, the self-cleavage came to 1.03.
Regarding C3U U9C, the self-cleavage is 1.08.
In the case of C3U U9G, the self-cleavage came to 0.657.
As to C3U U32C, the self-cleavage was found to be 0.962.
The same measure for C3U U32G: 0.452.
As for C3U U32A, the figure is 0.95; as for C3G U12G, 0.356.
For the variant C3G U12C, the self-cleavage was found to be 0.394.
As for C3G U12A, the figure is 0.352; as for G4A C30A, 0.379.
G4A C30U: the self-cleavage was 0.526.
As for G4A C30G, the figure is 0.368; as for C3U A40C, 0.469.
The same measure for C3U A40G: 0.34; for C3U A40U: 0.36.
As for C3U G4C, the figure is 0.3.
Take C3U G4U: the self-cleavage stood at 0.302.
On to C3U G4A, for which the self-cleavage was 0.387.
Take C3G U19A: the self-cleavage came to 0.265.
The same measure for C3G U19G: 0.306; for C3G U19C: 0.31.
With C3G G10A, the self-cleavage is 0.771.
The same measure for C3G G10C: 0.52; for C3G G10U: 0.638.
As for G4A A23G, the figure is 0.272.
As for G4A A23C, the figure is 0.337.
G4A A23U: the self-cleavage came out at 0.356.
On to C3G G27A, for which the self-cleavage was found to be 0.317.
Consider C3G G27U, for which the self-cleavage is 0.265.
The same measure for C3G G27C: 0.284; for G4A G18C: 0.333.
As for G4A G18A, the figure is 0.372.
The same measure for C3G A26C: 0.268; for C3G A26G: 0.296; for C3G A26U: 0.361.
Regarding C3G G25C, the self-cleavage is 0.33.
As for C3G G25U, the figure is 0.329; as for C3G G25A, 0.296.
As for G4A C43A, the figure is 0.313.
Consider G4A C43U, for which the self-cleavage is 0.271.
As for G4A C43G, the figure is 0.29; as for C3U A6G, 0.747.
For the variant C3U A6C, the self-cleavage was found to be 0.437.
As for C3U A6U, the figure is 0.609; as for G4A C11U, 0.389.
On to G4A C11A, for which the self-cleavage came out at 0.62.
As for G4A C11G, the figure is 0.539; as for G4A G17A, 0.337.
As for G4A G17U, the figure is 0.39; as for G4A G17C, 0.399.
As for C3U, the figure is 1.03; as for C3G, 0.537.
Consider C3U U28G, for which the self-cleavage turned out to be 0.505.
Turning to C3U U28C, the self-cleavage worked out at 0.854.
The same measure for C3U U28A: 0.448; for G4A A6C: 0.232.
G4A A6U: the self-cleavage turned out to be 0.377.
